This assay has as its target purified folded MHC-complex (Example 34). Briefly: sandwich ELISA: W6/32 coated, detection with HRP-conjugated rabbit anti-β2m.

The results in this text go back to patent publication US20200347103A1.

In turn, “W6/32 mouse-anti-HLA-ABC antibody (Dako M0736)” showed an OD450 of wells with MHC complex relative to wells with the negative control β2m of 6 fold.
